Where a chain is given by its changes, count along the chain named.
B1: Camrelizumab (antibody, V domains shown)
VH: EVQLVESGGGLVQPGGSLRLSCAASGFTFSSYMMSWVRQAPGKGLEWVATISGGGANTYYPDSVKGRFTISRDNAKNSLYLQMNSLRAEDTAVYYCARQLYYFDYWGQGTTVTVSS
VL: DIQMTQSPSSLSASVGDRVTITCLASQTIGTWLTWYQQKPGKAPKLLIYTATSLADGVPSRFSGSGSGTDFTLTISSLQPEDFATYYCQQVYSIPWTFGGGTKVEIK
B2: Seq No.2-RFc (PD-1 variant SEQ ID NO: 2 fused to rabbit IgG Fc) (Fc fusion)
chain: PGWFLDSPDRPWNPPTFSPALLVVTEGDNATFTCSFSNTSESFVLNWYRMSPSNQTDKLAAFPEDRSQPGQDCRFRVTQLPNGRDFHMSVVRARRNDSGTYLCGAISLSTPVWIKESLRAELRVTERRAEVPTAH
notes: signal peptide 1-20 left out; also called variant 1; not shown: rabbit IgG Fc (RFc) of vector pcDNA3.4-RFc
B3: Toripalimab (antibody, V domains shown)
VH: QGQLVQSGAEVKKPGASVKVSCKASGYTFTDYEMHWVRQAPIHGLEWIGVIESETGGTAYNQKFKGRVTITADKSTSTAYMELSSLRSEDTAVYYCAREGITTVATTYYWYFDVWGQGTTVTVSS
VL: DVVMTQSPLSLPVTLGQPASISCRSSQSIVHSNGNTYLEWYLQKPGQSPQLLIYKVSNRFSGVPDRFSGSGSGTDFTLKISRVEAEDVGVYYCFQGSHVPLTFGQGTKLEIKR
B4: Seq No.6-RFc (PD-1 variant SEQ ID NO: 6 fused to rabbit IgG Fc) (Fc fusion)
chain: B2 chain with R66F, S67F, Q68T, P69V, G70S
notes: Signal peptide 1-20 left out; also called variant 5; 56#-16; not shown: rabbit IgG Fc (RFc) of vector pcDNA3.4-RFc
B5: Seq No.5-RFc (PD-1 variant SEQ ID NO: 5 fused to rabbit IgG Fc) (Fc fusion)
chain: B2 chain with R66F, S67R, Q68N, P69C, G70T
notes: Signal peptide 1-20 left out; also called variant 4; not shown: rabbit IgG Fc (RFc) of vector pcDNA3.4-RFc
B6: Seq No.7-RFc (PD-1 variant SEQ ID NO: 7 fused to rabbit IgG Fc) (Fc fusion)
chain: B2 chain with S67I, Q68N, P69R, G70S
notes: Signal peptide 1-20 left out; also called variant 6; not shown: rabbit IgG Fc (RFc) of vector pcDNA3.4-RFc
B7: Sintilimab (antibody, V domains shown)
VH: QVQLVQSGAEVKKPGSSVKVSCKASGGTFSSYAISWVRQAPGQGLEWMGLIIPMFDTAGYAQKFQGRVAITVDESTSTAYMELSSLRSEDTAVYYCARAEHSSTGTFDYWGQGTLVTVSS
VL: DIQMTQSPSSVSASVGDRVTITCRASQGISSWLAWYQQKPGKAPKLLISAASSLQSGVPSRFSGSGSGTDFTLTISSLQPEDFATYYCQQANHLPFTFGGGTKVEIK
B8: Seq No.3-RFc (PD-1 variant SEQ ID NO: 3 fused to rabbit IgG Fc) (Fc fusion)
chain: B2 chain with E64F, D65L, R66F, S67N, Q68L
notes: Signal peptide 1-20 left out; also called variant 2; not shown: rabbit IgG Fc (RFc) of vector pcDNA3.4-RFc
B9: Seq No.4-RFc (PD-1 variant SEQ ID NO: 4 fused to rabbit IgG Fc) (Fc fusion)
chain: B2 chain with E64W, D65M, R66F, S67C, Q68F
notes: Signal peptide 1-20 left out; also called variant 3; not shown: rabbit IgG Fc (RFc) of vector pcDNA3.4-RFc

Experiments:
[1] = molecular target: T1, Seq No.1-RFc (wild-type PD-1 fused to rabbit IgG Fc) (human; rabbit, UniProt Q15116 21-155); experiment: SPR, Biacore T200; PD1-RFc mobile phase, antibody stationary phase
T1 construct: also called PD1-RFc; not shown: rabbit IgG Fc (RFc) of vector pcDNA3.4-RFc

[2] = molecular target: T2, Tilelizumab; experiment: as above
T2 construct: Biotin-labelled in flow cytometry; also called Tevimbra; Tislelizumab

[3] = molecular target: B3; experiment: SPR, Biacore T200

Kd [1] [nM]	koff [1] [s⁻¹]	kon [1] [M⁻¹ s⁻¹]	Kd [2] [nM]	koff [2] [s⁻¹]	kon [2] [M⁻¹ s⁻¹]	Kd [3] [nM]	Binder
0.229	0.000389	1.7e+06					B1
			0.085	0.000174	2.05e+06	0.395	B2
0.178	0.00115	6.47e+06					B3
			0.315	0.000836	2.66e+06		B4
			0.567	0.0003	530000		B5
			0.0492	0.000109	2.21e+06		B6
0.00141	5.11e-06	3.62e+06					B7
			1.78	0.00105	588000		B8
			2.94	0.00203	691000		B9

— EP4538285A1 (Chineo Medical Technology Co., Ltd., dated 2025)
